# Test results as given in patent publication US9353421, “Aptamers that are specific for immunoglobulin-binding cell wall proteins” (Helmholtz-Zentrum für Umweltforschung GmbH-UFZ).
# B1: PA#2/8 [A19-76] (ssDNA)
# DNA: AGCAACATGAGGGGGATAGAGGGGGTGGGTTCTCTCGGCTACAATCGTAATCAGTTAG
# B2: PA#2/8CR40 (ssDNA)
# DNA: AGCAACATGAGGGGGATAGAGGGGGTGGGTTCTCTCGGCT
# B3: PA#2/8 [A1-58] (ssDNA)
# DNA: ATACCAGCTTATTCAATTAGCAACATGAGGGGGATAGAGGGGGTGGGTTCTCTCGGCT
# B4: PA#2/8 (3'-biotin) (ssDNA)
# DNA: ATACCAGCTTATTCAATTAGCAACATGAGGGGGATAGAGGGGGTGGGTTCTCTCGGCTACAATCGTAATCAGTTAG
# What was measured:
# [1] = target: T1, Protein A (native, biotinylated) (Staphylococcus aureus, UniProt P02976 P02976:37-485); experiment: pulldown; magnetic bead binding; complete loss of binding; 10 mM MgCl2, 21 C; conditions: tags: biotin, immobilized on streptavidin Dynabeads M-280; Sigma-Aldrich P2165; label: fluorescein
# Protocol: (§1) The binding experiments were carried out under the SELEX conditions. 2.5-3 ×10^7 target-modified magnetic beads and ~55 pmol of fluorescein-labeled aptamer ssDNA in binding buffer (100 mM NaCl, 20 mM Tris-HCl, pH 7.6, 10 mM MgCl_2, 5 mM KCl, 1 mM CaCl_2) were employed for each experiment. The target-modified magnetic beads were prepared as a preliminary to the binding experiments, wherein Dynabeads® M-280 Streptavidin (Invitrogen, UK) were used in order to immobilize native, biotinylated protein A from *Staphylococcus aureus* (P2165, Sigma-Aldrich, Germany). Before each binding reaction the target-modified magnetic beads were washed several times in binding buffer and the aptamer ssDNA was thermally equilibrated by incubation at 90° C. for 8 min, on ice for 10 min and then converted to RT for ~5 min. The prepared aptamer ssDNA and the washed target-modified magnetic beads were then brought together for binding and incubated for 30 min at 21° C., while shaking. The non-bound ssDNA was removed and the binding complexes were washed several times in binding buffer. Thereafter, the target-bound ssDNA was eluted by means of heat by incubation of the binding complexes in binding buffer at 95° C. for 10 min, while shaking. […] The amount of ssDNA eluted could be quantified on the basis of the fluorescein labeling of the aptamer ssDNA and by means of a calibration curve. […]
# [2] = target: T1, Protein A (native, biotinylated); experiment: pulldown; magnetic bead binding; negative result; 10 mM MgCl2, 21 C; conditions: tags: biotin, immobilized on streptavidin Dynabeads M-280; Sigma-Aldrich P2165; label: fluorescein
# Protocol: as §1
# [3] = target: T1, Protein A (native, biotinylated); experiment: pulldown; magnetic bead binding; retained and even improved vs full length; 10 mM MgCl2, 21 C; conditions: tags: biotin, immobilized on streptavidin Dynabeads M-280; Sigma-Aldrich P2165; label: fluorescein
# Protocol: as §1
# [4] = target: Protein A (recombinant) (UniProt P02976 P02976:37-485); experiment: SPR; steady-state avidity (bivalent analyte); 100 mM NaCl, 20 mM Tris-HCl pH 7.6, 10 mM MgCl2, 5 mM KCl, 1 mM CaCl2, 0.005% SP20; conditions: tags: Sigma-Aldrich P7837; label: 3'-biotin
# Description: (§2) These changes are emitted as a measurable signal, expressed in resonance units (RU), and are proportional to the amount of target bound on the sensor surface. In the experiments presented here, non-specific ssDNA (SELEX library, 3'-biotinylated) was immobilized in the reference cell and ssDNA of the aptamer PA#2/8 (3'-biotinylated) was immobilized in the measurement cell. The target solution, comprising recombinant protein A (P7837, Sigma-Aldrich, Germany) or native protein A (P3838, Sigma-Aldrich, Germany) in binding buffer (100 mM NaCl, 20 mM Tris-HCl, pH 7.6, 10 mM MgCl_2, 5 mM KCl, 1 mM CaCl_2) with 0.005% SP20, was passed over the prepared sensor surfaces at a flow rate of 10 µl/min. […] The sensorgrams (FIG. 6, 8) show the double-referenced signal curve (measurement cell minus reference cell and buffer reference) during the binding and dissociation phase at different target concentrations in a range of 10 nM-5,000 nM protein A. During such a measurement series the 1,000 nM concentration of protein A was measured 3 times as a control. […]
# (§3) From the binding data at the end of each binding phase with the different protein A concentrations a saturation curve was plotted (FIG. 7, 9) and the steady state affinity of the aptamer PA#2/8 for protein A was calculated from this. […]
# [5] = target: Protein A (native) (UniProt P02976 P02976:37-485); experiment: as above; conditions: tags: Sigma-Aldrich P3838; label: 3'-biotin
# Description: as §2, §3
# T1 sequence (P02976 37-485, one chain of several): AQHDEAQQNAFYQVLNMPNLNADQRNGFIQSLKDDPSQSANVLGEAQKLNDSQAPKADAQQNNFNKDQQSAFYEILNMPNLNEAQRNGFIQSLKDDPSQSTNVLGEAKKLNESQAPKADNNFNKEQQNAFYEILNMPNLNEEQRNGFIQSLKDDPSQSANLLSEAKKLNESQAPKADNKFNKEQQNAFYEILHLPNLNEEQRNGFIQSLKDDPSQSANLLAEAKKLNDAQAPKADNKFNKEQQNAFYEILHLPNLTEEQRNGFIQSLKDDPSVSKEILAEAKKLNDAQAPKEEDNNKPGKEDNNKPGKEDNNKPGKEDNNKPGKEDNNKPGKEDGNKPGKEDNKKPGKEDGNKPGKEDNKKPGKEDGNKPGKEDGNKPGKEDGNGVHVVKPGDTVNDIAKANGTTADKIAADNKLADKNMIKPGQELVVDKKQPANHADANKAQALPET
# Sequence of Protein A (native) (P02976 37-485, one chain of several): as above
# Sequence of Protein A (recombinant) (P02976 37-485, one chain of several): as above
binder,measurement,setting,value
B1,binding result,[1],no binding
B2,binding result,[2],no binding
B3,binding result,[3],binds
B4,Kd,[4],188 nM
same,Kd,[5],75.3 nM
